Experimental data published in the nanobody polyreactivity screen of Harvey et al. (2022).

Assay: yeast display, Sf9 membrane polyspecificity reagent, FACS + sequencing; frameworks hold sequencing errors
Summary of the method: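 A synthetic nanobody library was expressed on Saccharomyces cerevisiae BJ5465 by galactose induction for 36–48 hours. The library was stained for 1 hour at 4 °C with 10% biotinylated, detergent-solubilized Sf9 membrane reagent and enriched with streptavidin microbeads before FACS. Low and high (top ~1%) gates were set on anti-HA fluorescence for expression and streptavidin fluorescence for reagent binding, and each polyreactivity label reflects the gate of origin.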

| Sequence | polyreactivity (PSR sort gate) |
| --- | --- |
| QVQLVESGGGLVQAGGSHRLSCAASGSTLGDYAMGWYRQAPGKERELVAAISNGVSTNYADSVKGRFTISRDNAKNTVYLQKNSLKPVDTAVYYCNAGSGWGSLLEYDYWGQGTKVTVSS | low polyreactivity |
| QVQLVESGGGLVQAGGSHRLSCAPSGRTYYMYAMGWYRPAPGKEREFVAAITSGGSRNYADSVKGRFTISRDNAKKTVYLQMNSLKPEDTAVYYWARYRGYWGRYYGVDYGYWGQGTQVTVSS | high polyreactivity |
| QVQLVESGGGLVQAGGSHRLSCDSSGTFKWYAMGWYRQAPGKERELVAVISTSGGTTNYADSVKGRFTISLDNAKNTVYLQMNSLKPEDTAVYYCNAAKLFRYDYWGQGTQVTVSS | high polyreactivity |
| QVQLVESGGGLVQAGGSHRLSCSASGSNFRDYAMGWYRQAPGKERELVAAISWSSSRTYYADSVKGRFTISRDNAKNTVYLQMNSLKPEDTAVYYCNKLSIWSYYFGPYGYDYWGQGTQVTVSS | low polyreactivity |
| QVQLVESGGGLVQAGGSHRLSSAASGSTFAKNAMGWYRQARGKESELVATISRGGSTNYADSVKGRFTISRDNAKNTVYLQMNSLKPEDTAVYYCNADRVRTAVYSYVYAYGIMNYSGQGTQVTVSS | low polyreactivity |
| QVQLVESGGGLVQAGGSHRLTCAASGRTFIFYAMGWYRPEPGKERELVAAITYSGTSTYYADSVKGRFTISRDNAKNTVYLQMNSLKPEDTAVYYCAKDGQRDANYYWGQGTQVTVSS | low polyreactivity |
| QVQLVESGGGLVQAGGSIRLSCAASASIFQSYAMGWYRQAAGKERELVATITYSAGSTYYSDSVKGRFTITRDNAKNTVYLQMNSLKPEDTAVYYCDARRRGTIKTRMDYWGQGTQVTVSS | high polyreactivity |
| QVQLVESGGGLVQAGGSIRLSCAASGFIFGGYAMGWYRQAPGKERELVAAITRSGGSTYYADSVKGRFTISRDNAKTTVYFQMNSLKPEDTAVYYCAAVPYRKHSYPFRLNYWGQGTQVTVSS | high polyreactivity |
| QVQLVESGGGLVQAGGSIRLSCAASGFIFNHYAMGWYRQAPVKEREFVAAISWSGTRTYYADSVKGRFTISRDNAKNTVYLQMNSLKPEDTAVYYCAADVWGPYDYWGQGTQVTVSS | low polyreactivity |
| QVQLVESGGGLVQAGGSIRLSCAASGFTFAKYSMGWYRQAPVKERELVATITRGGNTYYADSVKGRFTISRDNAKNTVYLQMNSLKPEDTAVYYCAASWYRFSQYKYYYWGQGTKVTVSS | high polyreactivity |
| QVQLVESGGGLVQAGGSIRLSCAASGFTFYYNTMGCYRQAPGKERELVAAISYSAGSTFYADSVKGRFTISRDNAKNTVYLQMNSLKTEDTAVYYCAAGRPRRHKGYHFGYWGQGTQVTVSS | low polyreactivity |
| QVQLVESGGGLVQAGGSIRLSCAASGITFYRNARGWYRQAPGKEMELVAAITWNGGRTYYADSVKGRFTISRDNAKNTVYLQMNSLKPEDTAVYYCAAAYPTYRHYYWGQGTQVTVSS | low polyreactivity |
| QVQLVESGGGLVQAGGSIRLSCAASGITFYVYTLGWYRQAAGKERELVAAINGSGGSTNYADSVKGRFTITRDNEKNTVYLQMNSLKREDTAVYYCNAPVVYFWPLNFDYWGQGTQVTVSS | low polyreactivity |
| QVQLVESGGGLVQAGGSIRLSCAASGNTFRYYAMGWYRQAPGKERELVAGISRRGGSTYYADSVKGRFTISRDNAKNTVYLQMNSLKPEDTAVYYCNAVGGNGAVVAYGYWGQGTQVTVSS | high polyreactivity |
| QVQLVESGGGLVQAGGSIRLSCAASGRIFHPYAMGWYRQAPGKERELVATISWSGGSTTYADSVKGRFTISRDNAKNTVYLQMNSLKPEDTAVYYCNADYWWSYVRFDYWGQGTQVTVSS | low polyreactivity |
| QVQLVESGGGLVQAGGSIRLSCAASGRIFWGNGMGWYRQAPGKEREFVAAISKSGGSTYYPDSVKGRFTISRDNAKNTVYLQMNSLKPEDTAVYYCAARAPYSYSGYGYWGQGTQVTVSS | high polyreactivity |
| QVQLVESGGGLVQAGGSIRLSCAASGRIFYTYAMGWYRPAPGKERELVAAISSRTGSTYYADSVKGRFTISRDNAKNTVYLQMNSLKPEDTAVYYCNAYRLRYGYDYWGQGTQVTVSS | high polyreactivity |
| QVQLVESGGGLVQAGGSIRLSCAASGRTFSAYAMGWYRQEPGKVRELVARITSVDSTNYADSVKGRFTISRDNAKNTVYLQMNSLKPEDTAVYYSNATFGYPLVDYDDYWGQGTQVTVSS | low polyreactivity |
| QVQLVESGGGLVQAGGSIRLSCAASGRTFYLYAMGWYRQAPGKERELVAVISRRGGRTYYADSVKGRFTISRDNSKNTVYLQMNSLKPEDTAVYYCAVYSFGMGYWGQGTQVTVSS | high polyreactivity |
| QVQLVESGGGLVQAGGSIRLSCAASGSTFSHNAMGWYRQAPGKERELVAAIRWNGGSTYYADSVKGRFTISRDNAKNTVYLQMNSLKPEDTAVYYCAKENHYFTQGYGYWGQGTQVTVSS | low polyreactivity |
| QVQLVESGGGLVQAGGSIRLSCAASGVIFYGNSIGWYRQAPGKERELVAAISRRGGRTYYADSVKGRFTNSRDNAKITVYLQMNSLKPEDTAVYYCAADVIYSGDYWGQGTQVTVSS | high polyreactivity |
| QVQLVESGGGLVQAGGSIRLSCAPSGRTFRYYAMGWYRQAPGKERELVAAISRSGGSTYYADSVKGRFTISRDNAKNTVYLQMNSLKPEVTAVYYCADRYYVPWFGPSKYTPYDYWGQGIQVTVSS | high polyreactivity |

| Sequence | polyreactivity (PSR sort gate) |
| --- | --- |
| QVQLVESGGGLVQAGGSISLSCAASGFIFDDNAMGCYRQAPGKERELVAAISQGAGRTYYADSVKGRFTISRDNAKNTVYLQMNSVKPEDTAVYYCNSGRPKYWYGSKYDYWGQGTQVTVSS | low polyreactivity |
| QVQLVESGGGLVQAGGSLCLSCAASGIFVYNAIGWYRQAPGKEREFVAAINKSGASTFYADSVKGRFTISRDNAKNTVYLQMNRLKPEDTAVYYCRERDYWGQGTQVTVSS | low polyreactivity |
| QVQLVESGGGLVQAGGSLGLSCAASGFTFRNYAMGCYRQAPGKERELVATLSASSGSTYYADSVKGRFTISRDNAKNTVYLQMNSLKPEDTAVYYCAAGLSGYSRKMYYWGQGTQVTESS | high polyreactivity |
| QVQLVESGGGLVQAGGSLGLSCAASGIILCYYDMGWYRQAPGKERELVAAITYSGSSTYYADSVKGRFTISRDNAKNTVYLLMNSLKPEDTAVYYCNAGWFYGAIWNYDYWGQGTKVTVSS | low polyreactivity |
| QVQLVESGGGLVQAGGSLGLSCAASGLTFSRYAMGWYREAPGKEWELVASISQGGGSTYYADSVKGRFTISRDNPKKTVYLQMNSLKPEDTAVYYCIRLTIGSSSYDYWGQGTKVTVSS | high polyreactivity |
| QVQLVESGGGLVQAGGSLGLSCAASGRTFAKYAMGWYRQAPGKERELVAAITRGDTTNYADSVKGRFTISRDNAKNTGYLQMHRLKPEDTAVYYCAATPDPPHTYEYWGQVTQVTVSS | low polyreactivity |
| QVQLVESGGGLVQAGGSLGLSCAASGSIFSSNVMGWYRQAPGKERELVAAISGGGGSTYYADSVKGRFTISRDNAKNTGYLQMNSLKPEDTAVYYCNRVTTWARTPKAYGYWGQGTQVTVSS | high polyreactivity |
| QVQLVESGGGLVQAGGSLGLSCAASGSIFTNYAMGWYRQAPGKERELVAAISVGGGRTYYADSVKGRFTISRDNAKNTVDLQMNSLKPEDTAVYYCAARYPFGSLGRYGYWGQGTQVTVSS | high polyreactivity |
| QVQLVESGGGLVQAGGSLGLSCAASGSILYYNAMGWYRQAPGKERELVAAISWSGGSKYDADSVKGRFTISRDNAKNTVYLQMNSQKPEDTAVYYCLYYRSDEMDYWGQGTQVTVSS | high polyreactivity |
| QVQLVESGGGLVQAGGSLGLSCAASGSTFLHDAMGWYRQAPGKERELVAAISVSGVRTYYADSVKGRFTISRDNGKNTVYLQMNSLKPEDTAVYYCAADGHHADYDFWGQGTQVTVSS | low polyreactivity |
| QVQLVESGGGLVQAGGSLGVSCAASGSTFRTYAMGWYRQAPGKERELVAAISQRGGSTYYADSVKGRFTISRDNAKNTVYLQMNSLTPEDSAVYYCAARYGVRYIYRMDYWGQGSQVTVSS | high polyreactivity |
| QVQLVESGGGLVQAGGSLHLSCAASGSIFRKNAMGWYRQAPGKERELVAVITSSGASTYYADSVKGRFTISRDNAKNTVYLQMNSLKPEDTAVYYCNAPSFYTKKMYSWGQGTQVTVSS | high polyreactivity |
| QVQLVESGGGLVQAGGSLLLSCAASASTISYKAMGWYRHAPGQETELVAAIDRSVSTNYADSVKGRFTISRDNAKNTVYLQMNSLKPEDTAVYYCNARHPTDDIVIYDYWGQGTQVTVSS | low polyreactivity |
| QVQLVESGGGLVQAGGSLLLSCAASGFTFQYYAMGWYRPEPGKERELVASISWSGGSTYYADSVKGRFTISRDNAKNTVYLQMHSLKPEDTAVYYCAATVTYFFSSARFSAYGYWGQGTQVTVSS | high polyreactivity |
| QVQLVESGGGLVQAGGSLLLSCAASGFTFSYYAMGWYRPAPGKERELVAAINWNGGSTYYADSVKGRFTISRDNAKNTVYLQMNSLKPEDTAVYYCNARQSYRYSQHGYWGQGTQLTVSS | high polyreactivity |
| QVQLVESGGGLVQAGGSLLLSCAASGIIFSEYDMGWYRQAPGKESELVAAISKSGGRTYYADSVKVRFTISRDNAKNTGFLQMNSLKQEDTAVYYCAAGGRFRFTQYYKHYYWGQGTQVNVSS | high polyreactivity |
| QVQLVESGGGLVQAGGSLLLSCAASGITFIRNGMGWYRPAPGKERELVAAISDTGARTYYADSVKGRFTISRDNAKNTVYLQMNSLKPEDTAVYYCAADFQTYWSHLYGYIGQYDYWGQGTQVTVSS | low polyreactivity |
| QVQLVESGGGLVQAGGSLLLSCAASGRIFRVYAMGWYRQAPGKERELVASITTSGSTYYADSVKGRFTISRDNAKNTVYLQMNSLKPEDTAVYYCAVDNYYTPWYPYLGYDSWGQGTQVTVSS | low polyreactivity |
| QVQLVESGGGLVQAGGSLLLSCAASGRIFRYYAMGWYRQATGKERELVAGISWRGSSTYYADSVKGRFTISRDNATNTVYLQMNSLKPEDTAVYYCNRDQSYIPFTGGRFYYWGQGTQVTVSS | high polyreactivity |
| QVQLVESGGGLVQAGGSLLLSCAASGRTFILNAMGWYSQAPGKERELVAAISWSGGSTYYADSVKGRFTISRDNAKNTVYLQMNSLKPEDTAVYYCAAETYAYLFHTYDYWGQGTQVTVSS | low polyreactivity |
| QVQLVESGGGLVQAGGSLLLSCAASGRTFNVYAMGRYRQAPGKERELVAAINRGGRTNYADSVKGRYTISRDNAKNTVYLQMNSLKPEDTAVYYCAALRVYVNWHKIGYDYWGQGTQVTVSS | low polyreactivity |
